MFI data for 1 substance are collected here from patent US20250043020A1.

The target in assay [1] is human Ankyrin Repeat Domain-Containing Protein 30A (NY-BR-1), full-length, on cells (human) (UniProt Q9BXX3). Briefly: flow cytometry on NY-BR-1 transfected Bosc23 cells; PE anti-mouse Fcγ subclass I secondary.
Assay [2] concerns the target human Ankyrin Repeat Domain-Containing Protein 30B (NY-BR-1.1), full-length, on cells (human) (UniProt Q9BXX2). Briefly: flow cytometry on NY-BR-1.1 transfected Bosc23 cells; PE anti-mouse Fcγ subclass I secondary. On the technique in general: Flow cytometry measures light scatter and fluorescence of single cells or particles in a stream.
Sequence of UniProt Q9BXX2 (Q9BXX2 whole entry, the tested form may be a part): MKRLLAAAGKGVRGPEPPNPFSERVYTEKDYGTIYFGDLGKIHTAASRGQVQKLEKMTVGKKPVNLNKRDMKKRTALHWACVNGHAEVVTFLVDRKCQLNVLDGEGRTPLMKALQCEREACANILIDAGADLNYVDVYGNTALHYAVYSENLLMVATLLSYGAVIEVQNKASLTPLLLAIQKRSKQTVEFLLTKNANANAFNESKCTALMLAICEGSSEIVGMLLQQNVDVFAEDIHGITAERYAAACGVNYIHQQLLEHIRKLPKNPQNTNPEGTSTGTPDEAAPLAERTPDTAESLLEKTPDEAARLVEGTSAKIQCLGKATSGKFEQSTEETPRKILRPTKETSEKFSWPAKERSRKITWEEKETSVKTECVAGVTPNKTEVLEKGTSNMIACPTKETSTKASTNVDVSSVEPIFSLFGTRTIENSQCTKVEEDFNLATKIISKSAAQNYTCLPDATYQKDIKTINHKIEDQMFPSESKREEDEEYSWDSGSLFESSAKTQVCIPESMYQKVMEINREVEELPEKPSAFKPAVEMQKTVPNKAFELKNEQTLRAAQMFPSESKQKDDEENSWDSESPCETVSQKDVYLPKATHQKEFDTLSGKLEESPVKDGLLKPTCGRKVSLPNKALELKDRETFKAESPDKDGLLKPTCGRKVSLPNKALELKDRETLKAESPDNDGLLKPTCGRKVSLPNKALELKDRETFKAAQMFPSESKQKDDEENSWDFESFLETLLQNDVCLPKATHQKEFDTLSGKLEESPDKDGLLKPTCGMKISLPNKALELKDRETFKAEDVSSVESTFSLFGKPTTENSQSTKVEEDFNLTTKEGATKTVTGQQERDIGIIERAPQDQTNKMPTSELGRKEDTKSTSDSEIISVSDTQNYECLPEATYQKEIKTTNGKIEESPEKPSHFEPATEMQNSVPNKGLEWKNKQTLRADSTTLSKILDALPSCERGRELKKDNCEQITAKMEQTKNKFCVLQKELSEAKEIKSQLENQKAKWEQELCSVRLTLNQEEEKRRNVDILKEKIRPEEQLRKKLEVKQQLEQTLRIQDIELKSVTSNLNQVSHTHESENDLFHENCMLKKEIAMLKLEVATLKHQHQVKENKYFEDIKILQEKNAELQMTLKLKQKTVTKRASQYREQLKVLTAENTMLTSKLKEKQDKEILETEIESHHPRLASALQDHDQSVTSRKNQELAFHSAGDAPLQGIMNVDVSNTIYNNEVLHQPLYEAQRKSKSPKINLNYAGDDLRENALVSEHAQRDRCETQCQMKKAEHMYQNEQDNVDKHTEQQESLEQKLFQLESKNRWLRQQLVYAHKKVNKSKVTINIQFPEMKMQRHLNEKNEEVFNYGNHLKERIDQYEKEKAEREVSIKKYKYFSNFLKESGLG

Sequence of UniProt Q9BXX3 (Q9BXX3 whole entry, the tested form may be a part): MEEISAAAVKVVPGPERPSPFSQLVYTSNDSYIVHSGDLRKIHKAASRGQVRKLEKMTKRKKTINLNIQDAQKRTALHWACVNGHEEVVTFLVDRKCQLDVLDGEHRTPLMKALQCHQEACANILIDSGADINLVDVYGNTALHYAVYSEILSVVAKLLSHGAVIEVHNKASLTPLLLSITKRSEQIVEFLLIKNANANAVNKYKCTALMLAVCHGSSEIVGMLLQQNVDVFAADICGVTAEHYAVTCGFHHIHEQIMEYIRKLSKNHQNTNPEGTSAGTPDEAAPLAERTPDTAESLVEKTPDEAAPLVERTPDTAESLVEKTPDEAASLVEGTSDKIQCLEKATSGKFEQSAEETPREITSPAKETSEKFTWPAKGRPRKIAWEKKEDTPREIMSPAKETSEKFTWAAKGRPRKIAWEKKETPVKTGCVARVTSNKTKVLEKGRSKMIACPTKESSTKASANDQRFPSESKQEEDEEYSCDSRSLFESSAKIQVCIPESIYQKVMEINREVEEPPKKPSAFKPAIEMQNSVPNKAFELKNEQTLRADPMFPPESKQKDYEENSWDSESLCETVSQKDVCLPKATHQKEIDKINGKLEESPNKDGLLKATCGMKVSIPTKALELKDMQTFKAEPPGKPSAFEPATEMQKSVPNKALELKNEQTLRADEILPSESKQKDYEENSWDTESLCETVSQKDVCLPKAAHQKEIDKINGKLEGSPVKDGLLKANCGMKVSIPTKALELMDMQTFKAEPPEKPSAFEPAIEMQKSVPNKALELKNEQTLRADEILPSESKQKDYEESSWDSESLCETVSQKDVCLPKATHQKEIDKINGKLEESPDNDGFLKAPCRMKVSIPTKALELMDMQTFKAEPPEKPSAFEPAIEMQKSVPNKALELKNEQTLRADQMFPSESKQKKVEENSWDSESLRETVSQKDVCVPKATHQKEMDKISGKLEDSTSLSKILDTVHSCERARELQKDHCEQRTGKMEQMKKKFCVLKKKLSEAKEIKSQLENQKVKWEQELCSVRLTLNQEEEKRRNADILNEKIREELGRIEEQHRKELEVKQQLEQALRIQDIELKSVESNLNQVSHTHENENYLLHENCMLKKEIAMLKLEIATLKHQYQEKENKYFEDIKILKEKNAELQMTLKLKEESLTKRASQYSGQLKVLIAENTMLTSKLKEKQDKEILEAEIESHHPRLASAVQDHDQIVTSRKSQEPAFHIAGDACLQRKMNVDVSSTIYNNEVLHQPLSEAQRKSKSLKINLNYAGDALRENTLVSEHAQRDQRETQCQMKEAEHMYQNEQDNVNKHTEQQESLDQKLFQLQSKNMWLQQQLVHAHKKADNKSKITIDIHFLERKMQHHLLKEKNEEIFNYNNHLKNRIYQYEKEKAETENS

Turning to “isotype control (Example 1, flow cytometry with full-length murine antibodies) (antibody)”, the MFI in assay [1] is 74; in assay [2] it was 90.
